The results in this text go back to publication doi:10.1101/2024.10.16.618688.

“And” between values parts separate entries of the source, which are not always exact repeats. Equal values may be shown once.

Assay [1] deals with full-length neuroligin 2 (NL2), wild type (mouse) (UniProt Q69ZK9). Put plainly: cryo-EM structure.
The target in assay [2] is NRX1β ECD (aa 81 - 311) labeled with Alexa Fluorophore 488 (mouse) (UniProt P0DI97). Put plainly: fluorescence polarisation. For orientation: In fluorescence polarisation assays a small probe gives low polarisation when free and higher when bound to something large.

Usually stoichiometry N stands for the number of molecules, sites or subunits per partner or assembly. Broadly, the Kd is a measure of binding affinity in units of concentration. Read a high Kd as a looser complex. In assay [1], “full-length neuroligin 2 (NL2), wild type (from UniProt Q69ZK9 15-836) (natural protein)” came in with a stoichiometry N of 2. Moreover, the Kd in assay [2] stood at 6 µM.
For “NL2 H279Y G282K mutant (from UniProt Q69ZK9 170-836) (natural protein)”, the Kd in assay [2] turned out to be 0.3 µM. That is a sub-micromolar value.
For the substance “full-length neurexin 1β (NRX1β), wild type (from UniProt P0DI97 47-468) (natural protein)”, the stoichiometry N (NRX1β per NL2 dimer) in assay [1] was 2 and 1.
